Reference: patent US20210253725A1 (BIONTECH, published 2021)

T1: CD27 expressed on the cell surface (HT1080_CD27 cells) (human, UniProt P26842 20-260)
T1 sequence (looked up): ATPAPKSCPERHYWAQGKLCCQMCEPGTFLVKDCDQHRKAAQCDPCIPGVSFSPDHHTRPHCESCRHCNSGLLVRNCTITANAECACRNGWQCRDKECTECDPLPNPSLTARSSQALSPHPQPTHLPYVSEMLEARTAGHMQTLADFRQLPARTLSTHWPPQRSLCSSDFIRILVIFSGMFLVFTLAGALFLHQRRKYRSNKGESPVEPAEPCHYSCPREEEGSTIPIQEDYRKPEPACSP

T2: CD27 protein (His-tagged, Sino Biological Inc. 10039-H08B1) (human, UniProt P26842 20-192)
T2 construct: bought; coated onto ELISA plates; also called human CD27; recombinant protein; not shown: His tag
T2 sequence (looked up): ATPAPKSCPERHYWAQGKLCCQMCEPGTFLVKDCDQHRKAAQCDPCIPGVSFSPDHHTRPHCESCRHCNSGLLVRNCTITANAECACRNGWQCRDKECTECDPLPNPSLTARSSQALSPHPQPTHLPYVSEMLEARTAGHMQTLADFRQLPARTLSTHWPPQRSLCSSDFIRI


Legend:
[1] = molecular target: T1, CD27 expressed on the cell surface …; assay: cell-based or functional assay
[2] = molecular target: T2, CD27 protein (His-tagged, Sino …); assay: ELISA on coated His-tagged CD27
[3] = molecular target: T1, CD27 expressed on the cell surface …; assay: cellular binding assay, HT1080_CD27 cells
Also: test concentration or dose not given here.

Binder	IL-8, cross-linked by F(ab')2 fragment [abs. corr.] [1] [abs. corr.]	IL-8 [abs. corr.] [1] [abs. corr.]	ELISA [abs. corr.] [2] [abs. corr.]	Cellular binding assay [RFU] [3] [RFU]
P018.S.01.A.C04 (antibody, V domains shown, V regions on human Ig constant parts; also called AB27_8) VH: QSLEESGGGLVTPGGTLTLTCTASGSDISTYHMGWFRQAPGKGLEYIGFINTGGTTWYASWAKGRFTVSRTSTTVDLLMTSPTTEDTATYFCARYDAGHAFFDLWGPGTLVTVSS VL: AVVMTQTASPVSAAVGGTVTIKCQASQSIGSSYFSWYQQKPGQPPKLLIYSASTLASGVSSRFKGSGSGTEYTLTISDLESADAATYYCQGYDGDTTTAFFAFGGGTEVVVE	1.08	0.383	3.24	368
P018.S.10.A.H02 (antibody, V domains shown, V regions on human Ig constant parts; also called AB27_185) VH: QSLEESGGRLVTPGGSLTLTCTVSGIDLSSYAMGWFRQAPGKGLEYIGIIYSSGSTWFANWVKGRFTISKTSTTVDLKMTSLTTEDTATYFCARYSAADHGDKFKLWGQGTLVTVSS VL: AAVLTQTPSPVSAAVGGTVSISCQSSKNIFDNTRLSWFQQKPGQPPKQLIYGASTLASGVPSRFSGSGSGTQFTLTISGVQSDDAATYYCLGEYSSDSDTSFGGGTEVVVK	2.1	1.57	3.25	144
P018.S.02.A.B03 (antibody, V domains shown, V regions on human Ig constant parts; also called AB27_30) VH: QSLEESGGGLVKPGGTLTLTCTASGFSLSSTYMSWVRQAPGKGLEWIGDIYTDGSTYYASWVNGRFTISKTSTTVDLKMTSLTTEDTATYFCARGAAAAYDLWGQGTLVTVSS VL: AYDMTQTPASVSAAVGGTVTIKCQASQNIYTNLAWYQQKPGQPPKLLIYGVSNLESGVPSRFKGSGSGTQFTLTISGVQSDDAATYYCQQGYSSTNVENAFGGGTEVVVK	1.16	0.12	3.25	332
P018.S.07.A.H05 (antibody, V domains shown, V regions on human Ig constant parts; also called AB27_133) VH: QSLEESGGRLVTPGTPLTLTCTASGFSLNSYYINWVRQAPGKGLEWIGFINGYDNTWYASWAKGRFTISRTSTTVDLRITSPTTEDTATYFCARDPGGASGTGRLDLWGQGTLVTVSS VL: DIVMTQTPASVSAAVGGTVTINCQASQSISTALAWYQQKPGQRPKLLIYDASKLASGVPSRFKGNGSGTEFTLTISDLESADAATYYCQCTYYDAYDVGAFGGGTEVVVN	1.19	-0.16	3.25	256
P018.S.01.A.C02 (antibody, V domains shown, V regions on human Ig constant parts; also called AB27_7) VH: QSLEESGGDLVQPGASLTLTCTASGLDFISSYMCWVRQAPGKGLEWIGCIAPGGGNTYYATWAKGRFTFSETSSTTVTLQMTSLTAADTATYFCARTYPSIWYFGLWGPGTLVTVSS VL: DVVMTQTPASVSEPVGGTVTIKCQASQSIGSNLGWYQQKPGQPPKLLIYGASTLASGVSSRFKGSGSGTEFTLTMSDLESADAATYYCQSFYAASSAFGGGTEVVVK	1.48	0.395	3.25	324
P018.S.01.A.A04 (antibody, V domains shown, V regions on human Ig constant parts; also called AB27_1) VH: QSVEESGGRLVTPGTPLTLTCTVSGFSLSRYWVSWVRQAPGKGLEAIGVIDNGDTAYYASWAKGRFTISKTSSITVDLKMTSLTTEDTATYFCTREGADHSGQDLWGQGTLVTVSS VL: AAVLTQTPSPVSAAVGGTVTINCQASQSVISNNDLSWYQQKPGQPPKLLIYRASNLASGVPSRFEGSGSGTQFTLTISDLESEDAATYYCQGGYAGIVDRRPFGGGTEVVVK	1.03	0.236	3.24	315
P018.S.06.A.H04 (antibody, V domains shown, V regions on human Ig constant parts; also called AB27_111) VH: QEKLEESGGGLVKPGGSLTLPCTASGFTLSSRYYMCWVRQAPGKGLEWIGCIYAGSLRTWYASWAKGRFTISKTSSTTVTLQMTSLTAADTATYFCARSPGVAASYPELWGPGTLVTVSS VL: AQVLTQTPSSVAAAVGGTVSISCQSSQSVGNADNLAWYQQKPGQPPNLLIYYAASLASGVPSRFKGSGSGTQFTLTISDLESDDAATYYCGGGYYNSTDTFYTFGGGTEVVVK	1.69	0.173	3.23	331
